Assays:
β-lactoglobulin (BLG) = target: T1, β-lactoglobulin (BLG) (Bos taurus, UniProt P02754); assay: Binding of AITC to BLG from disappearance of free -SH / -NH2 groups (Ellman's reagent, OPA); parameters: species or system bovine; conditions: 25° C., pH 8.5
T1 construct: The composition in the major whey protein fraction was 89.22% BLG; purchased Davisco Biopure, lot JE 001-3-922
T1 sequence (P02754 17-178): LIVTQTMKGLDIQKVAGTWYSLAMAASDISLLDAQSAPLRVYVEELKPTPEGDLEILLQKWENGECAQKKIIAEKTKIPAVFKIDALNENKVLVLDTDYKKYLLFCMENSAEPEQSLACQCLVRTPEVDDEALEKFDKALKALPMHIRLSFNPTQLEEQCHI
Description: A volume of 50 mL of mixtures was prepared by mixing 1 mM BLG (pH 8.5) with 200 mM AITC in Millipore® water to obtain AITC to BLG molar ratios from 0.1 to 40. Final concentration of ethanol in all sample solutions was adjusted to 5%. Samples were incubated 24 h at room temperature, under agitation (using a roller mixer SRT2, Milian, Switzerland) and protected from light. Upon incubation, contents in free sulfhydryl (—SH) and amino (—NH2) groups were determined using the Ellman's reagent [5,5′-dithio-bis(2-nitrobenzoic acid); DTNB] (Ellman G L. Tissue sulfhydryl groups. 1959. Arch Biochem Biophys, 82, 70-77) and o-phthaldialdehyde (OPA) methods (Hofmann K, Hamm R. Sulfhydryl and disulfide groups in meats. 1978. Adv Food Res, 24, 1-111), respectively.
To determine the amount of total —SH groups sample mixtures were diluted to the final BLG concentration 50 μM in 200 mM Tris-base (Tris(hydrohymethyl)-aminomethan) buffer containing 1% SDS and 8M urea at pH 8.0. 50 μL of 10 mM DTNB in ethanol was added to 3 mL of these samples and they were left 20 min at room temperature under mild agitation. The absorbance at 412 nm was measured against corresponding reagent blanks (1% ethanol in the buffer with DTNB) using an Uvikon® 810 spectrophotometer (Kontron Instruments, Basel, Switzerland). […] Therefore, absorbance values of samples were corrected for the absorbance of corresponding concentrations of AITC. Concentration of SH groups in sample solutions was assessed according to the previously made standard calibration curve. For that purpose L-Cys (Fluka, Switzerland) dissolved in the same buffer in concentration range 0.005-0.1 mM was used.
Quantitative determination of free α- and ε-amino groups was done using the approach based on the method of Goodno et al. (Goodno C. C. Swaisgood H. E., Catignani G. L.; (1981). A fluorimetric assay for available lysine in proteins. Anal. Biochem. 115(1), 203-211.) with modifications done in our laboratory. Briefly, the determination of amino groups was carried out by mixing sample solutions (0.1 mL) with 0.3% (w/v) N-acetyl-L-cystein (Fluka, Switzerland) in borate buffer pH 9.3 (9.1 mL) and 20% SDS (w/w; 0.5 mL). […] Upon incubation, mixtures were allowed to cool down at room temperature for 30 minutes before absorbance reading was done at 340 nm. […] Therefore, absorbance values of samples were corrected for the absorbance of corresponding AITC concentrations. Concentration of free (α- and ε-) amino groups in sample solutions was assessed according to the previously made standard calibration curve. […]
Assuming that one AITC can bind per one —SH group or per one —NH2 group at the time, the molar binding ratio of AITC to BLG (BAITC/BLG) was estimated from measured values for free —SH and —NH2 groups. […]

[1] = Emulsifying properties, 10% sunflower oil-in-water emulsions, stability on storage; format: physicochemical
Description: Emulsifying properties of BLG-AITC conjugates, non-heated and heated at pH 7.0 and 4.0 (prepared as described in examples 1 and 2), were evaluated by preparing emulsions containing 10% (w/w) of “high oleic” sunflower oil (Oleifico SABO, Manno, Switzerland). Samples containing BLG-AITC conjugates in the equimolar ratio were diluted to 0.25 mM BLG and mixed with oil in a pyrex tube (D 25 mm, V 35 mL) to a final weight of 20 g. They were pre-homogenized using an Ultra Turrax® T25 equipped with a S25N-10G dispersing head (IKA-Werke, Staufen, Germany) rotating at 16,000 rpm for 1 minute. Homogenization of emulsions was completed using an ultrasonic processor (Hielscher UP400S, power 400 W, frequency 24 kHz) and a sonotrode (diameter 7 mm, approx. length 100 mm, titanium) at room temperature for 75 seconds and 75% amplitude of the ultrasound maximal power. This emulsification time was enough to disperse the oil in small droplets and to avoid excessive heating of the sample.
Stability of emulsions to creaming and flocculation was followed over 33 days of storage at 4° C.

[2] = Foaming properties (Foamscan); format: physicochemical; parameters: key to foam capacity: FC = volume of foam / volume of gas injected; key to foam expansion: FE = volume of foam / volume of liquid in the foam; conditions: for foam capacity / foam expansion / foam liquid stability: 55 μM BLG; for foam volume stability: over 30 min
Description: Foaming properties of samples (prepared as described in example 1) were evaluated using the standardized method proposed by Guillerme C, Loisel W, Bertrand D, Popineau Y. Study of foam stability by video image analysis: Relationship with the quantity of liquid in the foams. 1993. J Text Stud, 24, 287-302. The apparatus used was a standard version of the Foamscan™ from Teclis-ITConcept (Longessaigne, France). The principle of the method is to foam a definite quantity of protein dispersion by infusing gas into it through a glass frit of specific porosity. The gas flow and duration of the bubbling are controlled. The foam is generated on the surface of the liquid and it rises in the glass tube where its height is followed in real time by image analysis using a charged-coupled device (CCD) camera. The amount of liquid incorporated into the foam and the drainage rate are followed by measuring the conductivity as a function of time and with reference to the conductivity of the solution before bubbling, in the cuvette (with the remaining liquid phase), and at electrodes placed at different heights of the tube (Kato A, Takahashi A, Matsudomi N, Kobayashi K. Determination of foaming properties of proteins by conductivity measurements. 1983. J Food Sci, 48, 62-65).
BLG-AITC conjugates were prepared as described in example 1 and then acidified to pH 7.0 or 4.0 by adding 1M HCl. The amount of HCl added was ˜0.02% and ˜0.8% of the total volume, for neutral and acidic pH adjustment, respectively. 12 mL of each sample at both pHs, was put into 12 mL-glass vial and heated on 85° C. for 15 min, in addition to 5 min necessary for temperature in the vial to reach 85° C. The heating was done without agitation, in a temperature-controlled water-bath. Subsequently, samples were let to cool down at room temperature over 40 minutes under a mild agitation, and then put on ice until further analysis.
A volume of 20 mL of the sample solution (non-heated and heated BLG-AITC covalent complexes with the AITC to BLG molar ratio 0.5, 1 and 2, at both pH), diluted to 55 μM BLG (0.1%) was placed in the cuvette. Nitrogen at the flow rate 80 mL/min was bubbled in through the glass frit of porosity 4, creating the air bubbles with diameters between 10 and 16 μm. This flow rate allowed efficient foam formation before strong gravitational drainage occurred. The bubbling was stopped when the foam volume of 110 cm^3 was reached. Subsequently, foam capacity (FC=volume of foam/volume of gas injected) and foam expansion (FE=volume of the foam/volume of the liquid in the foam) were calculated. Foam volume and liquid stability (time for the foam to drain 50% of its initial liquid content) were followed over next 30 min at 24±1° C.

Escherichia coli = assay: Antimicrobial activity, optical density decrease at 600 nm; format: cell-based; conditions: 0.5 mM BLG, AITC/BLG molar ratio 1 to 20; 24 h at 37° C.; OD 600 nm
Description: (§1) Antimicrobial properties of BLG-AITC conjugates were tested against Escherichia coli and Staphylococcus aureus. Single colony of each bacteria strain, previously grown on agar plates, was inoculated into 10 mL of brain-heart infusion (BHI) broth and incubated 24 h at 37° C. under agitation. For antimicrobial properties evaluation these pre-cultures were diluted 100 times in BHI broth.
(§2) BLG-AITC covalent complexes, with the AITC to BLG molar ratio 1, 2, 10 and 20, were prepared as described in the example 1 with the difference that 200 mM AITC solution was prepared in DMSO. Samples were subsequently acidified to pH 7.0 and then concentrated 5 times by using Centrisart® I centrifugal ultrafiltration units with cellulose triacetate ultrafilters having the molecular weight cut-off of 10 kDa (Sartorious, Germany) according to manufactures instructions.
(§3) An aliquot of 600 μL of concentrated samples was added to 2.4 mL of BHI broth containing E. coli or S. aureus to reach the starting concentrations of BLG (0.5 mM) and corresponding concentration of AITC. Controls in which 600 μL of 5% DMSO or water was added were prepared as well. Test tubes with sample mixtures were then incubated 24 h at 37° C. under stirring. Subsequently, optical densities (OD) of samples were measured at 600 nm. To evaluate the inhibition of bacteria growth, ODs of samples containing BLG-AITC covalent complexes were normalized by OD of the corresponding control and are expressed as the OD decrease in percentage.

Staphylococcus aureus = assay: as above; format: cell-based; conditions: 0.5 mM BLG, AITC/BLG molar ratio 1 to 20, 24 h at 37° C.
Description: as §1, §2, §3

[3] = pH 4.0 with heating (85° C., 15 min)
[4] = pH 7.0 with heating (85° C., 15 min)
[5] = pH 7.0, with or without heat treatment

Row | Compound | foam capacity [2, 3] | foam expansion [2, 3] | foam liquid stability [2, 3] | foam capacity ([2]; pH 4.0 without heating) | foam expansion ([2]; pH 4.0 without heating) | foam liquid stability ([2]; pH 4.0 without heating) | foam capacity [2, 4] | foam expansion [2, 4] | foam liquid stability [2, 4] | foam capacity ([2]; pH 7.0 without heating) | foam expansion ([2]; pH 7.0 without heating) | foam liquid stability ([2]; pH 7.0 without heating) | foam volume stability [2, 5] | further results
1 | C=CCN=C=S [AITC, Allyl-isothiocyanate] |  |  |  |  |  |  |  |  |  |  |  |  |  | dissociation constant KD (β-lactoglobulin (BLG); -SH group of BLG): very low; dissociation constant KD (β-lactoglobulin (BLG); amino groups of BLG): high; number of possible binding sites (β-lactoglobulin (BLG); amino groups of BLG): larger number of possible binding sites; maximum number of saturation site (nmax) (β-lactoglobulin (BLG); single free sulfhydryl group of BLG, one site binding fit): 0.84±0.06; ability to emulsify the oil ([1]; 0.25 mM AITC alone, 10% of sunflower oil): not able to properly emulsify; oiling-off ([1]; 0.25 mM AITC alone, at day=0 and after 24 days of storage): significant oiling-off
2 | AITC/BLG ratio 0.5: BLG-AITC covalent complex, AITC to BLG molar mixing ratio 0.5 | 1.16 ± 0.00 | 7.1 ± 0.2 | 200.0 ± 6.9 s | 1.18 ± 0.01 | 7.1 ± 0.0 | 204.5 ± 8.5 s | 1.14 ± 0.01 | 6.7 ± 0.1 | 133.0 ± 4.7 s | 1.16 ± 0.01 | 6.8 ± 0.1 | 152.0 ± 3.3 s |  | 
3 | AITC/BLG ratio 1: BLG-AITC covalent complex, AITC to BLG molar mixing ratio 1 | 1.17 ± 0.01 | 7.3 ± 0.2 | 190.5 ± 2.4 s | 1.18 ± 0.01 | 7.1 ± 0.1 | 217.5 ± 1.0 s | 1.14 ± 0.02 | 6.8 ± 0.1 | 130.0 ± 4.2 s | 1.16 ± 0.01 | 6.7 ± 0.1 | 159.0 ± 1.8 s | best foam stability | 
4 | AITC/BLG ratio 2: BLG-AITC covalent complex, AITC to BLG molar mixing ratio 2 | 1.16 ± 0.01 | 7.1 ± 0.2 | 193.0 ± 2.7 s | 1.18 ± 0.01 | 7.0 ± 0.0 | 216.3 ± 5.0 s | 1.16 ± 0.01 | 6.7 ± 0.1 | 128.0 ± 3.8 s | 1.17 ± 0.01 | 6.8 ± 0.1 | 145.5 ± 3.9 s |  | 
5 | BLG-AITC covalent complexes: covalent complexes of β-lactoglobulin and allyl isothiocyanate, various AITC to BLG molar ratios |  |  |  |  |  |  |  |  |  |  |  |  | volume stable foams | improvement of foam liquid stability (more time stability) ([2]; foam produced in acidic conditions versus pH 7.0): more than 30%; foam volume stability ([2]; pH 4.0, without or with heating): more volume stable than at pH 7.0; stability of emulsions to creaming and flocculation ([1]; 10% sunflower oil, molar ratio 1:1, 0.25 mM BLG, 33 days of storage at 4° C., neutral or acidic pH, with or without heat treatment): very stable emulsions; reduction of optical density (OD) (Escherichia coli): able to reduce the optical density; sensitivity compared with E. coli (Staphylococcus aureus): more sensitive; reduction of optical density (OD) (Staphylococcus aureus; OD 600 nm): able to reduce the optical density

Source: patent publication US20110319318A1, “COVALENT MILK PROTEIN/ISOTHIOCYANATE COMPLEXES” (NESTEC S.A., priority 2009, published 2011)
